Measurements: PMC2857867 (The FASEB Journal, 2010)

Molecular target: T1, VACV strain WR IFNα/βBP B18 (vaccinia virus strain Western Reserve, UniProt P25213 20-351)
Assay: SPR

Binder	Kd	koff	kon
mIFNβ (ligand) INYKQLQLQERTNIRKCQELLEQLNGKINLTYRADFKIPMEMTEKMQKSYTAFAIQEMLQNVFLVFRNNFSSTGWNETIVVRLLDELHQQTVFLKTVLEEKQEERLTWEMSSTALHLKSYYWRVQRYLKLMKYNSYAWMVVRAEIFRNFLIIRRLTRNFQN	3.2 nM	0.000333 s⁻¹	104000 M⁻¹ s⁻¹
mIL-28A (ligand) DPVPRATRLPVEAKDCHIAQFKSLSPKELQAFKKAKDAIEKRLLEKDLRCSSHLFPRAWDLKQLQVQERPKALQAEVALTLKVWENMTDSALATILGQPLHTLSHIHSQLQTCTQLQATAEPRSPSRRLSRWLHRLQEAQSKETPGCLEASVTSNLFRLLTRDLKCVANGDQCV	13.4 nM	0.0112 s⁻¹	832000 M⁻¹ s⁻¹
mIFNα-A (ligand) CDLPHTYNLRNKRALKVLAQMRRLPFLSCLKDRQDFGFPLEKVDNQQIQKAQAIPVLRDLTQQTLNLFTSKASSAAWNATLLDSFCNDLHQQLNDLQTCLMQQVGVQEPPLTQEDALLAVRKYFHRITVYLREKKHSPCAWEVVRAEVWRALSSSVNLLPRLSEEKE	0.455 nM	0.000784 s⁻¹	1.72e+06 M⁻¹ s⁻¹
hIL-28A (ligand) VPVARLHGALPDARGCHIAQFKSLSPQELQAFKRAKDALEESLLLKDCRCHSRLFPRTWDLRQLQVRERPMALEAELALTLKVLEATADTDPALVDVLDQPLHTLHHILSQFRACIQPQPTAGPRTRGRLHHWLYRLQEAPKKESPGCLEASVTFNLFRLLTRDLNCVASGDLCV	14.9 nM	0.00364 s⁻¹	245000 M⁻¹ s⁻¹

Molecular target: T1, VACV strain WR IFNα/βBP B18
Assay: SPR
Remark: another data set of the same source

Binder	binding result
mIL-10 (ligand) SRGQYSREDNNCTHFPVGQSHMLLELRTAFSQVKTFFQTKDQLDNILLTDSLMQDFKGYLGCQALSEMIQFYLVEVMPQAEKHGPEIKEHLNSLGEKLKTLRMRLRRCHRFLPCENKSKAVEQVKSDFNKLQDQGVYKAMNEFDIFINCIEAYMMIKMKS	binds
